{
  "source": "patent US20230235072A1",
  "about": "(DENALI THERAPEUTICS, published 2023)",
  "key": {"CH3C.18 Fc-Fab fusion": {"biological_target": "T1, CH3C.18 Fc-Fab fusion (Homo sapiens (Human), UniProt P0DOX5 230-449 = IgG part)", "T1 construct": "bivalent for TfR; also called CH3C.18.1.18", "T1 Fc": "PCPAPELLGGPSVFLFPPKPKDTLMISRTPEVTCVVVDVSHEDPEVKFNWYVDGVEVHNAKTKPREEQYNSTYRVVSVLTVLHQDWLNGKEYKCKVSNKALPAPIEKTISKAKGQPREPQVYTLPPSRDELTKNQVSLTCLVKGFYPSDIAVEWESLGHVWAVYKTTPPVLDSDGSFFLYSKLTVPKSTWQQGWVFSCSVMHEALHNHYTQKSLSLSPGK", "experiment": "phage ELISA: phage-displayed human TfR apical domain, dilution series on plate-coated CH3C.18; OD650", "experimental": "(§1) The plates were subsequently washed and anti-M13-HRP was added, and after additional washing the plates were developed with TMB substrate and quenched with 2N […]."}, "[1]": {"biological_target": "T2, CH3C.35 Fc-Fab fusion (bivalent) (Homo sapiens (Human), UniProt P0DOX5 230-449 = IgG part)", "T2 construct": "bivalent for TfR; also called CH3C.35.bi; CHC3.35", "T2 Fc": "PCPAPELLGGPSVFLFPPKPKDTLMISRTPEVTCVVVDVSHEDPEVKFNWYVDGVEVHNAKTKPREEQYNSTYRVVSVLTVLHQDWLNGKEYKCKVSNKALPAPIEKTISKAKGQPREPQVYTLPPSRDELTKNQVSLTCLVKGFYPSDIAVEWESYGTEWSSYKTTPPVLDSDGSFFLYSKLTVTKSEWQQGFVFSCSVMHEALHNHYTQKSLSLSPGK", "experiment": "phage ELISA: phage-displayed human TfR apical domain, dilution series on plate-coated CH3C.35; OD650", "experimental": "as §1"}, "[2]": {"biological_target": "T2, CH3C.35 Fc-Fab fusion (bivalent)", "experiment": "phage ELISA: phage-displayed TfR apical domain, dilution series on plate-coated CH3C.35; OD650", "experimental": "as §1"}, "[3]": {"biological_target": "T3, cynomolgus transferrin receptor (TfR) ectodomain (ECD) (cynomolgus, UniProt Q5RDH6 121-760 (Pongo abelii entry), biotinylated where captured on streptavidin)", "T3 construct": "also called cyno TfR; cynoTfR", "T3 chain": "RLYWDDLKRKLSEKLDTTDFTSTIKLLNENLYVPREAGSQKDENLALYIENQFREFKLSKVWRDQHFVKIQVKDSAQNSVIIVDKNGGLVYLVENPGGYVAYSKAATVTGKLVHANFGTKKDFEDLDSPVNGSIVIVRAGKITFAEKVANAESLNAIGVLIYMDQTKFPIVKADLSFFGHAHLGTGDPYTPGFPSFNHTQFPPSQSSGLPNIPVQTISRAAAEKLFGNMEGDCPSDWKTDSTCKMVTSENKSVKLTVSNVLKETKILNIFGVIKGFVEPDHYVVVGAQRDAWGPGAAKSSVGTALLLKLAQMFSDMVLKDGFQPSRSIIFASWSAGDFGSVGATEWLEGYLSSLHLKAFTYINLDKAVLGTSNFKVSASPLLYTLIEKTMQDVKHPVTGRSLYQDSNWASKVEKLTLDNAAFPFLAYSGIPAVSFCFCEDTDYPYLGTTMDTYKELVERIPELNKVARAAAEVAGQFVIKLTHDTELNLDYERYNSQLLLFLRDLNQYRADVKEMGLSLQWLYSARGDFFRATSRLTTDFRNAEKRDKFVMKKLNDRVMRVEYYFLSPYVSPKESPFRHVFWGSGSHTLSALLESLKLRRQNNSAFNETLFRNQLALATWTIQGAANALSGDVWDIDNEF", "experiment": "phage ELISA: Fc variant on phage, titrated by OD268 of the phage solution on plate-coated cyno TfR; OD650"}, "[4]": {"biological_target": "T4, human transferrin receptor (TfR) ectodomain (ECD) (human, UniProt P02786 121-760, biotinylated where captured on streptavidin)", "T4 construct": "also called human TfR; huTfR", "experiment": "phage ELISA: phage at about its EC50 on plate-coated human TfR with soluble holo-Tf added at 0.007-5 uM; OD650"}, "[5]": {"biological_target": "T3, cynomolgus transferrin receptor (TfR) …", "experiment": "phage ELISA: Fc variant on phage, titrated by OD268 of the phage solution on plate-coated cyno TfR; OD650"}, "[6]": {"biological_target": "T4, human transferrin receptor (TfR) …", "experiment": "phage ELISA: Fc variant on phage, titrated by OD268 of the phage solution on plate-coated human TfR; OD650"}, "[7]": {"biological_target": "T3, cynomolgus transferrin receptor (TfR) …", "experiment": "phage ELISA: Fc variant on phage, titrated by OD268 of the phage solution on plate-coated cyno TfR; OD650"}, "[8]": {"biological_target": "T3, cynomolgus transferrin receptor (TfR) …", "experiment": "phage ELISA: Fc variant on phage, titrated by OD268 of the phage solution on plate-coated cyno TfR; OD650"}, "[9]": {"biological_target": "T4, human transferrin receptor (TfR) …", "experiment": "competition phage ELISA: phage-displayed clone at about its EC50 on plate-coated human TfR, soluble human TfR varied as competitor; OD650"}},
  "note": "Where two headings read alike, the source gives them in different places.",
  "data": [
    {"binder": "loop-truncated human TfR apical domain displayed on phage (receptor, fused to phage coat, Myc-tagged; also called human TfR apical domain (phage)) SSGLPNIPVQTISRAAAEKLFGNMEGDCPSDWKTDSTCRMVTSESKNVKLTVSNDSAQNSVIIVDKNGRLVYLVENPGGYVAYSKAATVTGKLVHANFGTKKDFEDLYTPVNGSIVIVRAGKITFAEKVANAESLNAIGVLIYMDQTKFPIVNAELSGP", "values": [
      {"measurement": "binding result", "setting": "CH3C.18 Fc-Fab fusion", "value": "binds"},
      {"measurement": "binding result", "setting": "[1]", "value": "binds"}
    ]},
    {"binder": "loop-truncated cynomolgus TfR apical domain displayed on phage (receptor, fused to phage coat, Myc-tagged; also called cyno apical domain (phage)) SSGLPNIPVQTISRAAAEKLFGNMEGDCPSDWKTDSTCKMVTSENKSVKLTVSNDSAQNSVIIVDKNGGLVYLVENPGGYVAYSKAATVTGKLVHANFGTKKDFEDLDSPVNGSIVIVRAGKITFAEKVANAESLNAIGVLIYMDQTKFPIVKADLSGP", "values": [
      {"measurement": "binding result", "setting": "[2]", "value": "binds"}
    ]},
    {"binder": "Clone CH2A2.4 (designed binder) PCPAPELLGGPSVFLFPPKPKDTLMISRTPEVTCVVVDVSHEDPEVSFEWYVDGVPVRWEWQWPREEQYNSTYRVVSVLTVLHQDWLNGKEYKCKVSNKALPAPIEKTISKAKGQPREPQVYTLPPSRDELTKNQVSLTCLVKGFYPSDIAVEWESNGQPENNYKTTPPVLDSDGSFFLYSKLTVDKSRWQQGNVFSCSVMHEALHNHYTQKSLSLSPGK", "values": [
      {"measurement": "binding result", "setting": "[3]", "value": "binds"},
      {"measurement": "binding result", "setting": "[4]", "value": "binds"}
    ]},
    {"binder": "Clone CH2A2.5 (designed binder) PCPAPELLGGPSVFLFPPKPKDTLMISRTPEVTCVVVDVSHEDPEVAFTWYVDGVPVRWEWQNPREEQYNSTYRVVSVLTVLHQDWLNGKEYKCKVSNKALPAPIEKTISKAKGQPREPQVYTLPPSRDELTKNQVSLTCLVKGFYPSDIAVEWESNGQPENNYKTTPPVLDSDGSFFLYSKLTVDKSRWQQGNVFSCSVMHEALHNHYTQKSLSLSPGK", "values": [
      {"measurement": "binding result", "setting": "[5]", "value": "binds"},
      {"measurement": "binding result", "setting": "[6]", "value": "binds"}
    ]},
    {"binder": "Clone CH2A2.16 (designed binder) PCPAPELLGGPSVFLFPPKPKDTLMISRTPEVTCVVVDVSHEDPEVWFEWYVDGVFVGVAYDVPREEQYNSTYRVVSVLTVLHQDWLNGKEYKCKVSNKALPAPIEKTISKAKGQPREPQVYTLPPSRDELTKNQVSLTCLVKGFYPSDIAVEWESNGQPENNYKTTPPVLDSDGSFFLYSKLTVDKSRWQQGNVFSCSVMHEALHNHYTQKSLSLSPGK", "values": [
      {"measurement": "binding result", "setting": "[7]", "value": "no binding (tested: OD268 1 (phage solution))"},
      {"measurement": "binding result", "setting": "[4]", "value": "binds"}
    ]},
    {"binder": "Clone CH2A2.1 (designed binder) PCPAPELLGGPSVFLFPPKPKDTLMISRTPEVTCVVVDVSHEDPEVEFIWYVDGVDVRYEWQLPREEQYNSTYRVVSVLTVLHQDWLNGKEYKCKVSNKALPAPIEKTISKAKGQPREPQVYTLPPSRDELTKNQVSLTCLVKGFYPSDIAVEWESNGQPENNYKTTPPVLDSDGSFFLYSKLTVDKSRWQQGNVFSCSVMHEALHNHYTQKSLSLSPGK", "values": [
      {"measurement": "binding result", "setting": "[8]", "value": "binds"},
      {"measurement": "binding result", "setting": "[9]", "value": "binds"}
    ]}
  ]
}
